Measurements: patent publication CN114031685A (INST MILITARY MEDICINE ACADEMY MILITARY SCIENCES PLA, dated 2022)

How the values were obtained:
[1] = biological target: SARS-CoV-2 WT S-ECD蛋白 (新冠野生株, Genbank NC_045512.2) (SARS-CoV-2, UniProt P0DTC2 14-1213)
[2] = biological target: Alpha株 S蛋白 (on pseudovirus) (SARS-CoV-2 Alpha株 (B.1.1.7)); assay: cell-based or functional assay
[3] = biological target: Omicron株 S蛋白 (on pseudovirus) (SARS-CoV-2 Omicron株 (B.1.1.529)); assay: cell-based or functional assay
[4] = biological target: Delta株 S蛋白 (on pseudovirus / live virus) (SARS-CoV-2 Delta株 (B.1.617.2)); assay: cell-based or functional assay
[5] = biological target: Beta株 S蛋白 (on pseudovirus / live virus) (SARS-CoV-2 Beta株 (B.1.351)); assay: cell-based or functional assay
[6] = biological target: Gamma株 S蛋白 (on pseudovirus) (SARS-CoV-2 Gamma株 (P.1)); assay: cell-based or functional assay

B1: 抗SARS-CoV-2全人源单克隆抗体ZW2G10 (antibody, V domains shown)
VH: EVQLVESGGGLVQPGRSLRLSCAASGFTFDDYAMHWVRQAPGKGLEWVSGITWNSGTIGYADSVKGRFIISRDNAKNSLHLQMNSLRVEDTALYYCAKDNSDYSGYYWELENYGMDVWGQGTTVTVSS
VL: QSVLTQPPSVSGAPGQRVTISCTGSSSNIGAGYDVHWYQQLPGTAPKLLIYDNNNRPSGVPDRFSGSKSGTSASLAITGLQAEDEADYYCQSFDSSLSGVVFGGGTRLTVLR
notes: also called 单抗ZW2G10
For B1, the Kd [1] was 0.243 nM, the “假病毒中和 EC50” value [2] was 0.0141 µg/mL and the “假病毒中和 EC50” value [3] was 0.0193 µg/mL. The “假病毒中和 EC50” value [4] was 0.0362 µg/mL, the “真病毒中和 EC50 (Vero E6)” value [4] was 0.71 µg/mL and the “假病毒中和 EC50” value [5] was 0.0184 µg/mL. The “真病毒中和 EC50 (Vero E6)” value [5] was 1.42 µg/mL and the “假病毒中和 EC50” value [6] was 0.0156 µg/mL.
